These results are taken from paper PMC13086964 (Nature Communications, 2026).

The target of assay [1] is T1, recombinant full length His6-MBP-FAN1-His6 (human, UniProt Q9Y2M0 1-1017).
T1 construct: human FAN1, full length; Tag ends are read from the printed name His6-MBP-FAN1-His6; also called MBP-His-tagged FAN1; recombinant human FAN1; source: E. coli BL21, purified (HisTrap, MBPTrap, desalting); not shown: His6, N-terminal, kept; MBP, N-terminal, kept; His6, C-terminal, kept
T1 sequence (looked up): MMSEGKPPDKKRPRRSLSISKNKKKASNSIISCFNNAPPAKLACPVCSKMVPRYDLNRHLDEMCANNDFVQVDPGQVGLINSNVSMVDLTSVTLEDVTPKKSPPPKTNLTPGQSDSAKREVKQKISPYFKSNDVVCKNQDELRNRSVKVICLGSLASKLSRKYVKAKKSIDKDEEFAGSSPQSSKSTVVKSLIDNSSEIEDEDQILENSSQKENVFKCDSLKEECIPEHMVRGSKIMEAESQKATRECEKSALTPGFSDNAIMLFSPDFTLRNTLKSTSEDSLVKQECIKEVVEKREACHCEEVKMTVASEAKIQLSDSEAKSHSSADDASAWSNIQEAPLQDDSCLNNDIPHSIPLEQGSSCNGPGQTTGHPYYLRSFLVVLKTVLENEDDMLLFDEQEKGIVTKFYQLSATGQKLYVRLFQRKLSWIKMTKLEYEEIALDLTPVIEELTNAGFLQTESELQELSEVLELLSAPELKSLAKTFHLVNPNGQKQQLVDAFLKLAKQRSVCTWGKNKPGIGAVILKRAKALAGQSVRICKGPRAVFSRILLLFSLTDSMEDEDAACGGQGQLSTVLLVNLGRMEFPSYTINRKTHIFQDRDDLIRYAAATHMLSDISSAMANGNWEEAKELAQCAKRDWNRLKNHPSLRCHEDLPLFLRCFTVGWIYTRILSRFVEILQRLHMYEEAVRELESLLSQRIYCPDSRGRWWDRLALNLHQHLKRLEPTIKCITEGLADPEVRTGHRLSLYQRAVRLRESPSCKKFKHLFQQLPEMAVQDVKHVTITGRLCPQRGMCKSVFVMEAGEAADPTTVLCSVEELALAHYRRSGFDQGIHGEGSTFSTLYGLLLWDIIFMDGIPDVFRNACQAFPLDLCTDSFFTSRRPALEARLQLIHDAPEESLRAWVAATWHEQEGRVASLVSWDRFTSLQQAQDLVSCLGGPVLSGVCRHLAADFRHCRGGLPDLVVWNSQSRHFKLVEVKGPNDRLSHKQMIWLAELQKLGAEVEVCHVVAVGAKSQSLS
Kind of assay: pull-down; in vitro streptavidin pull-down with recombinant biotin-tagged USP7 TRAF-like or UBL domains and MBP-His-tagged FAN1 (Figure S3A). To be noted: both partners purified.

Assay [2] addresses T2, purified recombinant His-USP7, full-length (human, UniProt Q93009 1-1102).
T2 construct: human USP7, recombinant, full-length; also called human recombinant USP7; source: bought: R&D Systems (# E-519)
Kind of assay: pull-down; GST-FAN1-NTD on Glutathione Sepharose beads, 0.5 µg recombinant His-USP7, 1 h at 4 °C in PBS-1% Triton; washes with 300 mM NaCl; immunoblotting. To be noted: both partners purified.

T2 sequence (Q93009 whole entry): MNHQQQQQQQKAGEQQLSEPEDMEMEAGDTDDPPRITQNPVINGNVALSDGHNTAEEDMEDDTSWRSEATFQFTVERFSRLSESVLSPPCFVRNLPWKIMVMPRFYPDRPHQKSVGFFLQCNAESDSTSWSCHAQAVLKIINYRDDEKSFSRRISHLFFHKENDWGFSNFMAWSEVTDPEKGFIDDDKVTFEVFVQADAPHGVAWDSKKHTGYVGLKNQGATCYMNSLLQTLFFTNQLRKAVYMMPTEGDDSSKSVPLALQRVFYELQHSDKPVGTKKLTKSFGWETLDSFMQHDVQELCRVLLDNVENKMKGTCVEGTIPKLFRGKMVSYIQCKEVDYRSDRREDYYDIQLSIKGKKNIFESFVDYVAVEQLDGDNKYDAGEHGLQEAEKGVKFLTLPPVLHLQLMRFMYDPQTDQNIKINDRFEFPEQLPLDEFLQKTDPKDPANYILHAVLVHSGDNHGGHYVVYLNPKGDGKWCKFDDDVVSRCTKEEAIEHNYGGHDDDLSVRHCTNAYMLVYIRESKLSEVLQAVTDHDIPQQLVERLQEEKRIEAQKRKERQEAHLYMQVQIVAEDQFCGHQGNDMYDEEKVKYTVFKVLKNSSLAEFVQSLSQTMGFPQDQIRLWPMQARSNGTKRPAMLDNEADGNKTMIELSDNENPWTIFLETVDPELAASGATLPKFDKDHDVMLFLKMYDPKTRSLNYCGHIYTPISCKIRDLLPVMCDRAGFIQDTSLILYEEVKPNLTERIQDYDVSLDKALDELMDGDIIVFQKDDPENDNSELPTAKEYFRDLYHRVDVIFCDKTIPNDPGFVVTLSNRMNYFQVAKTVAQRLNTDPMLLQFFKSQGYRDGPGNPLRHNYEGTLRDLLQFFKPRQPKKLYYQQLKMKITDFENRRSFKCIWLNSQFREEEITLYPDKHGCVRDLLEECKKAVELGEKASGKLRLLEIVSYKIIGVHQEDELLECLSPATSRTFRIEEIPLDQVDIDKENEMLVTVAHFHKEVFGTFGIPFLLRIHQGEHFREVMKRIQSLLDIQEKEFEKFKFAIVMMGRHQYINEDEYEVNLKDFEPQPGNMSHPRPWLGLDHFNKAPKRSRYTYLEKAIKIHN

B1: USP7 UBL domain (residues 520-1067), biotinylated (domain or fragment, human, UniProt Q93009 520-1067, looked up)
chain: RESKLSEVLQAVTDHDIPQQLVERLQEEKRIEAQKRKERQEAHLYMQVQIVAEDQFCGHQGNDMYDEEKVKYTVFKVLKNSSLAEFVQSLSQTMGFPQDQIRLWPMQARSNGTKRPAMLDNEADGNKTMIELSDNENPWTIFLETVDPELAASGATLPKFDKDHDVMLFLKMYDPKTRSLNYCGHIYTPISCKIRDLLPVMCDRAGFIQDTSLILYEEVKPNLTERIQDYDVSLDKALDELMDGDIIVFQKDDPENDNSELPTAKEYFRDLYHRVDVIFCDKTIPNDPGFVVTLSNRMNYFQVAKTVAQRLNTDPMLLQFFKSQGYRDGPGNPLRHNYEGTLRDLLQFFKPRQPKKLYYQQLKMKITDFENRRSFKCIWLNSQFREEEITLYPDKHGCVRDLLEECKKAVELGEKASGKLRLLEIVSYKIIGVHQEDELLECLSPATSRTFRIEEIPLDQVDIDKENEMLVTVAHFHKEVFGTFGIPFLLRIHQGEHFREVMKRIQSLLDIQEKEFEKFKFAIVMMGRHQYINEDEYEVNLKDFEPQP
modifications: biotin (on the AviTag)
notes: human USP7 UBL domain, residues 520-1067; p28BIOH-LIC vector; also called USP7 UBL domains; source: E. coli BL21(DE3)-pBirAcm, purified (TALON, SEC); not shown: AviTag, N-terminal, kept
With B1, the binding result in assay [1] is given as “binds”.

B2: GST-FAN1-NTD (aa 1-372) (domain or fragment, human, UniProt Q9Y2M0 1-372, looked up)
chain: MMSEGKPPDKKRPRRSLSISKNKKKASNSIISCFNNAPPAKLACPVCSKMVPRYDLNRHLDEMCANNDFVQVDPGQVGLINSNVSMVDLTSVTLEDVTPKKSPPPKTNLTPGQSDSAKREVKQKISPYFKSNDVVCKNQDELRNRSVKVICLGSLASKLSRKYVKAKKSIDKDEEFAGSSPQSSKSTVVKSLIDNSSEIEDEDQILENSSQKENVFKCDSLKEECIPEHMVRGSKIMEAESQKATRECEKSALTPGFSDNAIMLFSPDFTLRNTLKSTSEDSLVKQECIKEVVEKREACHCEEVKMTVASEAKIQLSDSEAKSHSSADDASAWSNIQEAPLQDDSCLNNDIPHSIPLEQGSSCNGPGQTTGH
notes: also called GST-tagged FAN1; source: E. coli BL21-CodonPlus RIL, purified from soluble extracts on Glutathione Sepharose beads
With B2, the binding result in assay [2] was “binds”.
